Measured values reported in patent publication US20110059064A1.

Tests used:
[1] = target: T1, human voltage-gated potassium channel Kv1.3, expressed endogenously in human peripheral blood T cells (human), P22001
[2] = target: EGFP-tagged human IKCa1 Ca2+-activated K channel expressed in Cos-7 cells (human), O15554
[3] = target: T1, human voltage-gated potassium channel …; remark: listed apart in the source
[4] = target: human Kv1.2 channel expressed in Cos-7 cells (human), P16389
[5] = target: T2, mouse Kv1.1 channel stably expressed in L929 cells (mouse), P16388
T2 chain: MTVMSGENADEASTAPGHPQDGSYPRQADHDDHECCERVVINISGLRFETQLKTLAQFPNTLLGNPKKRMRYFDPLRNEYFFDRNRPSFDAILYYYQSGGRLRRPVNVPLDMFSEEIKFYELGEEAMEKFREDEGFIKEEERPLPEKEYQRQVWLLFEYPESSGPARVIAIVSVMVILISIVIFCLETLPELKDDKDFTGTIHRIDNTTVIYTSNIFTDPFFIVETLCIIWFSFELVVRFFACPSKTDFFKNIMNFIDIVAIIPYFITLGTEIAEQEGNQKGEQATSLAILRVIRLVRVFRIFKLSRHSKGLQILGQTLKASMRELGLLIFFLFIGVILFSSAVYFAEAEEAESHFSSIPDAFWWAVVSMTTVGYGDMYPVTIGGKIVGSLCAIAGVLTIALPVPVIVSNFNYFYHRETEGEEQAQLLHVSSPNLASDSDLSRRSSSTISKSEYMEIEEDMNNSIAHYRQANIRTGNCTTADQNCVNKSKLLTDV

T1 sequence (P22001 whole entry): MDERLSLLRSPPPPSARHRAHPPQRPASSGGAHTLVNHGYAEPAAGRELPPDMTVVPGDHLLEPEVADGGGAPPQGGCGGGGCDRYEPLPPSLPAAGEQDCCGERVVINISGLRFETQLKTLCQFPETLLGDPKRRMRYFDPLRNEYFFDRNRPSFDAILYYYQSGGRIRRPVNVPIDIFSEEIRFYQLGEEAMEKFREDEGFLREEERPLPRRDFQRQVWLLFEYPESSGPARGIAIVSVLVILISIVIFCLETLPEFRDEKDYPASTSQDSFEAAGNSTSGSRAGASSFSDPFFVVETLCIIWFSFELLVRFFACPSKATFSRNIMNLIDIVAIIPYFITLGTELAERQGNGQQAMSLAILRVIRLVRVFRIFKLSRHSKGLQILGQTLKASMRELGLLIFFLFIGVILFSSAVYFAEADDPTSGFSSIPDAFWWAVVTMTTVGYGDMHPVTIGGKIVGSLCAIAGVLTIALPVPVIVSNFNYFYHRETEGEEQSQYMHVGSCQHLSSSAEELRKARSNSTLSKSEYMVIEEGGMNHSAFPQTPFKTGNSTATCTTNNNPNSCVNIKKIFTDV
human Kv1.2 channel expressed in Cos-7 cells (human), P16389, sequence (P16389 whole entry): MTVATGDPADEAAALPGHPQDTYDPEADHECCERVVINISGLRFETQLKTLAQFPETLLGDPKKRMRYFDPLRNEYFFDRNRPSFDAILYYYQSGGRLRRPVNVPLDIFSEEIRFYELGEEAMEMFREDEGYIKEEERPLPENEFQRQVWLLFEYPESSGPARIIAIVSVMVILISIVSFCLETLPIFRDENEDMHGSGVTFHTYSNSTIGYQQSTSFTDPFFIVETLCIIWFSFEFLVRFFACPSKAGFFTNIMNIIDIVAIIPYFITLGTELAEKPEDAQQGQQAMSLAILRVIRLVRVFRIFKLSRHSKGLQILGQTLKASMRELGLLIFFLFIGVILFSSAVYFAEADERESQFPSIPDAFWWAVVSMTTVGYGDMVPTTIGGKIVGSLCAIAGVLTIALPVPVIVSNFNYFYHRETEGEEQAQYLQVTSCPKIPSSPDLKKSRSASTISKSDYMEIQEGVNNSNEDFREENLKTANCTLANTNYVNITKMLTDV
EGFP-tagged human IKCa1 Ca2+-activated K channel expressed in Cos-7 cells (human), O15554, sequence (O15554 whole entry): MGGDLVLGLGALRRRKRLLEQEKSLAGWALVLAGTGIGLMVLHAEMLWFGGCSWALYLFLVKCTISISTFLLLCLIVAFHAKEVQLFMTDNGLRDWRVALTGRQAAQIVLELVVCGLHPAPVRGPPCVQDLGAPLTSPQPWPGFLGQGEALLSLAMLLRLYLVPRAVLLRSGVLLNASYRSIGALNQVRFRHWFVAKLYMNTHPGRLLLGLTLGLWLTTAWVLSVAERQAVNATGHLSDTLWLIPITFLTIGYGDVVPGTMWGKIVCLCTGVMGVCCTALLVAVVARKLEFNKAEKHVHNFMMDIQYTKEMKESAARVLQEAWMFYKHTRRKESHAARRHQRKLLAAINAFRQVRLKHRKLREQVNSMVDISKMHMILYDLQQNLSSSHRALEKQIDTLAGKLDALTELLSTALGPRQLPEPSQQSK

AAAISCVGSPECPPKCRAQGCKNGKCMNRKCKCYYC (modifications not checked) [Vm24 (native peptide purified from the venom of Vaejovis mexicanus smithi)]
koff [1]: 0.00026 s⁻¹
time constant for washout [1]: 3800 s
Kd [2]: 14 nM
selectivity for hKv1.3 over hIKCa1 (fold) [2]: > 4500 fold
Kd [3]: 0.0029 nM
Kd [4]: 5 to 10 nM
selectivity for hKv1.3 over hKv1.2 (fold) [4]: > 1500 fold
Kd [5]: 30 to 40 nM
selectivity for hKv1.3 over mKv1.1 (fold) [5]: > 10000 fold
